According to PMC3406685:

What was measured:
Assay in all cases: real-time label-free cell adhesion
[1] = molecular target: Collagen Toolkit II peptide II-27
[2] = molecular target: Collagen Toolkit III peptide III-7
[3] = molecular target: triple-helical peptide II-27-A (GVOGEA within (GPP)5 hosts)

In the case of “integrin α1β1 on rat pheochromocytoma PC12 cells (from UniProt P18614 29-1180; P49134 21-799) (receptor)”, the increase of adhesion on substitution of Mg2+ with Mn2+ [1] is reported as 65%, the increase of adhesion on substitution of Mg2+ with Mn2+ [2] is reported as 26% and the adhesion relative to that on II-27 [3] is reported as 40%. It also gave an increase of adhesion on substitution of Mg2+ with Mn2+ [3] of 13%.
